Results reported in PMC4579020, “Reassembly and co-crystallization of a family 9 processive endoglucanase from its component parts: structural and functional significance of the intermodular linker” (PeerJ, 2015).

Legend:
[1] = biological target: GH9 catalytic module of Cel9I from Clostridium thermocellum, N-terminally His-tagged (Clostridium thermocellum)
[2] = biological target: T1, GH9 catalytic module of Cel9I from Clostridium thermocellum, untagged (Clostridium thermocellum); experiment: ITC; VP-ITC, 298 K; about 300 µM CBM3c injected into 65 µM GH9; 50 mM Tris-HCl pH 7.5, 150 mM NaCl, 0.05% sodium azide; one binding site model; CBM3c concentrations corrected to give a stoichiometry of one; two titrations; conditions: both partners purified
T1 chain: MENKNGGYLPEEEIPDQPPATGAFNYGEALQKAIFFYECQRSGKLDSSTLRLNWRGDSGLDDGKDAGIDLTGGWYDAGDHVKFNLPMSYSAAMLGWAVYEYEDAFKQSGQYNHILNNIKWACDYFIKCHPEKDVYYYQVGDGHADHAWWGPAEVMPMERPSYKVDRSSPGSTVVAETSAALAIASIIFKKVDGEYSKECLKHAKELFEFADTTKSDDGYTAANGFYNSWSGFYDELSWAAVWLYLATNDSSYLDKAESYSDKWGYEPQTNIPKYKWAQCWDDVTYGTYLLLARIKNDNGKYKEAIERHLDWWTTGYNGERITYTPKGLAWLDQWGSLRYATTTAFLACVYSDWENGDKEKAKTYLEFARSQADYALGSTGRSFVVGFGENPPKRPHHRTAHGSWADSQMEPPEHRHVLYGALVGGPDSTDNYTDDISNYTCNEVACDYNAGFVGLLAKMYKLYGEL

[3] = biological target: T2, CBM3c module of Cel9I with its adjacent N-terminal linker, C-terminally His-tagged (Clostridium thermocellum, UniProt Q02934 54-516); experiment: as above; conditions: both partners purified
T2 construct: Cloning is described in Burstein et al., 2009 and Gilad et al., 2003; also called CBM3cL; CBM3c with linker; source: E. coli BL21(DE3)RIL, purified (Ni-IDA); not shown: His tag, C-terminal, kept
T2 sequence: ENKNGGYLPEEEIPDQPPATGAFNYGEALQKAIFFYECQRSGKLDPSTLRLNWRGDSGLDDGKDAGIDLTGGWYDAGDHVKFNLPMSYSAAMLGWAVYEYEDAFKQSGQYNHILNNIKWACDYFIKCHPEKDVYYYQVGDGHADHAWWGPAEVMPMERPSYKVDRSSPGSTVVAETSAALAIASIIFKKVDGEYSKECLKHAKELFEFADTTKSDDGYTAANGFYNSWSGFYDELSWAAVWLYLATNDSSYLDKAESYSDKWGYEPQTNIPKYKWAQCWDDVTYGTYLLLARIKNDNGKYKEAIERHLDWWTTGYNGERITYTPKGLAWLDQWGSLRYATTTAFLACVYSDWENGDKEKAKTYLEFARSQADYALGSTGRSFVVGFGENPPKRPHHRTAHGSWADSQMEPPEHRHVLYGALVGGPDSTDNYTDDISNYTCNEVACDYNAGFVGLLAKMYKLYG

B1: CBM3c module of Cel9I without the N-terminal linker, C-terminally His-tagged (domain or fragment)
chain: EVPEDEIFVEAGVNASGNNFIEIKAIVNNKSGWPARVCENLSFRYFINIEEIVNAGKSASDLQVSSSYNQGAKLSDVKHYKDNIYYVEVDLSGTKIYPGGQSAYKKEVQFRISAPEGTVFNPENDYSYQGLSAGTVVKSEYIPVYDAGVLVFGREP
modifications: one bound Ca2+ in the crystal. Limits are the crystallized untagged GH9 entity (466 aa, about 52 kDa as on SDS-PAGE). Paper residues 1-446 are entity 21-466 (offset +20, from Tyr440, Gly444 and end …)
B1 gave a CMCase activity (reducing sugar released in 10 min, 333 K, pH 6.0) of 70 pmol His-tagged GH9 mixed with increasing amounts of CBM3cNL, relative to intact Cel9I set as 100% (% of intact Cel9I activity) [1] of 10 and a Kd [2] of 290 to 430 nM.

B2: GH9 catalytic module of Cel9I from Clostridium thermocellum, untagged (domain or fragment)
chain: MENKNGGYLPEEEIPDQPPATGAFNYGEALQKAIFFYECQRSGKLDSSTLRLNWRGDSGLDDGKDAGIDLTGGWYDAGDHVKFNLPMSYSAAMLGWAVYEYEDAFKQSGQYNHILNNIKWACDYFIKCHPEKDVYYYQVGDGHADHAWWGPAEVMPMERPSYKVDRSSPGSTVVAETSAALAIASIIFKKVDGEYSKECLKHAKELFEFADTTKSDDGYTAANGFYNSWSGFYDELSWAAVWLYLATNDSSYLDKAESYSDKWGYEPQTNIPKYKWAQCWDDVTYGTYLLLARIKNDNGKYKEAIERHLDWWTTGYNGERITYTPKGLAWLDQWGSLRYATTTAFLACVYSDWENGDKEKAKTYLEFARSQADYALGSTGRSFVVGFGENPPKRPHHRTAHGSWADSQMEPPEHRHVLYGALVGGPDSTDNYTDDISNYTCNEVACDYNAGFVGLLAKMYKLYGEL
modifications: one bound Ca2+ in the crystal. Limits are the crystallized untagged GH9 entity (466 aa, about 52 kDa as on SDS-PAGE). Paper residues 1-446 are entity 21-466 (offset +20, from Tyr440, Gly444 and end …)
In the case of B2, the Kd [3] is reported as 1300 to 2000 nM.
